Where no end group is shown, it is not given here. [ ]: non-standard residue; d: D form. The star is where a group is joined. Acetyl(2-(4-imidazolyl)) = O=C(Cc1c[nH]cn1)*; Aib = CC(C)(N)C(=O)O
B1: oxyntomodulin derivative of SEQ ID NO. 11 (peptide)
peptide: HGEGTFTSDLSRQMEEEAVRLFIEWAAHSQGTFTSDYSRYLDK
modifications: not fully specified (residue 1, N-terminus); also: N-terminal CA (4-imidazoacetyl), whether it replaces His1 not given here
B2: oxyntomodulin derivative of SEQ ID NO. 6 (peptide)
peptide: HGEGTFTSDLSRQMEEEAVRLFIEWAAHSQGTFTSDYSKYLD
modifications: not fully specified (residue 1, N-terminus); also: N-terminal CA (4-imidazoacetyl), whether it replaces His1 not given here
B3: oxyntomodulin derivative of SEQ ID NO. 17 (peptide)
peptide: HSQGTFTSDYSRYLDEEAVRLFIEWIRNTKRNRNNIA
modifications: not fully specified (residue 1, N-terminus); also: N-terminal CA (4-imidazoacetyl), whether it replaces His1 not given here

Experiments:
[1] = target: human glucagon receptor (human, UniProt P47871); assay: cell-based or functional assay
[2] = target: human GLP-1 receptor (human, UniProt P43220); assay: cell-based or functional assay

| Binder | EC50 (nM), cAMP [1] [nM] | EC50 (nM), cAMP [2] [nM] |
| --- | --- | --- |
| [Acetyl(2-(4-imidazolyl))]SQGTFTSDYSRYLDEEAVRLFIEWIRNGGPSSGAPPPSK (also: N-terminal CA (4-imidazoacetyl), whether it replaces His1 not given here) [oxyntomodulin derivative of SEQ ID NO. 18] | > 1000 |  |
| [Acetyl(2-(4-imidazolyl))]SQGTFTSDYSKYLDERRAQDFVAWLKNTGPSSGAPPPS (also: N-terminal CA (4-imidazoacetyl), whether it replaces His1 not given here) [oxyntomodulin derivative of SEQ ID NO. 3] |  | > 1000 |
| H[Aib]QGTFTSDYAKYLDEKRAKEFVQWLMNTC (also: ring marking not visible) [oxyntomodulin derivative of SEQ ID NO. 33] | 80.2 | 2.2 |
| B1 | > 1000 | > 1000 |
| HSQGTFTSDYSRYLDEEAVELFIEWLMNTK [oxyntomodulin derivative of SEQ ID NO. 13] | > 1000 | > 1000 |
| Y[Aib]QGTFTSDYSKYLDEKRAKEFVQWLMNTC (also: ring marking not visible) [oxyntomodulin derivative of SEQ ID NO. 34] | 1 | 12.5 |
| [Acetyl(2-(4-imidazolyl))]SQGTFTSDLSRQLEEEAVRLFIEWLMNK (also: N-terminal CA (4-imidazoacetyl), whether it replaces His1 not given here) [oxyntomodulin derivative of SEQ ID NO. 8] | > 1000 |  |
| H[Aib]QGTFTSDYSKYLDEKRAKEFVQWLMNTC (also: ring between residues marked, places not visible) [oxyntomodulin derivative of SEQ ID NO. 24] |  | 1.43 |
| B2 | > 1000 |  |
| B3 | > 1000 |  |
| [Acetyl(2-(4-imidazolyl))][Aib]QGTFTSDYSKYLDEKRAKEFVQWLMNTC (also: ring between residues marked, places not visible) [oxyntomodulin derivative of SEQ ID NO. 32] | 17.3 | 14.2 |
| H[Aib]QGTFTSDYSKYLDEKRAKEFVQWLMNT (also: ring between residues marked, places not visible) [oxyntomodulin derivative of SEQ ID NO. 28] | 0.3 |  |
| H[Aib]QGTFTSDYSKYLDEKRAKEFVCWLMNT (also: ring between residues marked, places not visible) [oxyntomodulin derivative of SEQ ID NO. 23] | 5.8 | 2.46 |
| H[Aib]QGTFTSDYSKYLDEKRAKEFVQWLMNTC (also: ring between residues marked, places not visible) [oxyntomodulin derivative of SEQ ID NO. 25] |  | 1.9 |

— patent US9731031B2, “Conjugate comprising oxyntomodulin and an immunoglobulin fragment, and use thereof” (Hanmi Science Co., Ltd., dated 2017)
